Assay results reported in patent publication EP3831849A1 (LamKap Bio beta AG, dated 2021).
Positions count from the first letter of the chain named.

B1: K2AC54 (bispecific antibody, human IgG1, kappa, lambda)
heavy: not shown
light 1: QSVLTQPPSVSGAPGQRVTISCTGSSSNIHDVGYVHWYQQLPGTAPKLLIYGASGRPSGVPDRFSGSKSGTSASLAITGLQAEDEADYYCQSYDTRQVVPTPVFGGGTKLTVLGQPKAAPSVTLFPPSSEELQANKATLVCLISDFYPGAVTVAWKADSSPVKAGVETTTPSKQSNNKYAASSYLSLTPEQWKSHRSYSCQVTHEGSTVEKTVAPTECS
light 2: not shown
notes: 6 is full length
B2: K2AC56 (bispecific antibody, human IgG1, kappa, lambda)
heavy: not shown
light 1: B1 light 1 with H30I, D31N, V32N, G33S, G52A, A53P, G55N, R96T, Q97G, V99M
light 2: not shown
notes: 6 is full length
B3: K2AC55 (bispecific antibody, human IgG1, kappa, lambda)
heavy: not shown
light 1: B1 light 1 with R96S, Q97A, V99F
light 2: not shown
notes: 6 is full length
B4: K2AC57 (bispecific antibody, human IgG1, kappa, lambda)
heavy: not shown
light 1: B1 light 1 with H30I, D31N, V32N, G33S, G52A, A53P, G55N, Q97F
light 2: not shown
notes: 6 is full length
B5: K2AC52 (bispecific antibody, human IgG1, kappa, lambda)
heavy: not shown
light 1: B1 light 1 with R96K, Q97R, V98E, V99F
light 2: not shown
notes: 6 is full length
B6: K2AC53 (bispecific antibody, human IgG1, kappa, lambda)
heavy: not shown
light 1: B1 light 1 with T95G, Q97A, V99F
light 2: not shown
notes: 6 is full length
B7: K2AC49 (bispecific antibody, human IgG1, kappa, lambda)
heavy: not shown
light 1: QSVLTQPPSVSAAPGQKVTISCSGSSSNIFDSGVSWYQQLPGTAPKLLIYNHNERPSGIPDRFSGSKSGTSATLGITGLQTGDEADYYCGTWDFPPSRFVFGGGTKLTVLGQPKAAPSVTLFPPSSEELQANKATLVCLISDFYPGAVTVAWKADSSPVKAGVETTTPSKQSNNKYAASSYLSLTPEQWKSHRSYSCQVTHEGSTVEKTVAPTECS
light 2: not shown
B8: AC41K2 H-CL1 (bispecific antibody, human IgG1, kappa, lambda)
heavy: not shown
light 1: not shown
light 2: DIQMTQSPSSLSASVGDRVTITCRASQSISSYLNWYQQKPGKAPKLLIYAASSLQSGVPSRFSGSGSGTDFTLTISSLQPEDFATYYCQQMHPRAPKTFGGGTKLTVLGQPKAAPSVTLFPPSSEELQANKATLVCLISDFYPGAVTVAWKADSSPVKAGVETTTPSKQSNNKYAASSYLSLTPEQWKSHRSYSCQVTHEGSTVEKTVAPTECS
notes: CEACAM5xCD47 κλ body, IgG1, common heavy chain
B9: AC43K2 H-CL1 (bispecific antibody, human IgG1, kappa, lambda)
heavy: not shown
light 1: not shown
light 2: B8 light 2
notes: CEACAM5xCD47 κλ body, IgG1, common heavy chain; CEACAM arm light chain fully kappa, CD47 arm light chain hybrid
B10: K2AC41 (bispecific antibody, human IgG1, kappa, lambda)
heavy: not shown
light 1: DIQMTQSPSSLSASVGDRVTITCQASQEIAATLNWYQQKPGKAPKLLIYNYSTLETGVPSRFSGSGSGTDFTFTISSLQPEDIATYYCQQVGLNPENTTFGGGTKLTVLGQPKAAPSVTLFPPSSEELQANKATLVCLISDFYPGAVTVAWKADSSPVKAGVETTTPSKQSNNKYAASSYLSLTPEQWKSHRSYSCQVTHEGSTVEKTVAPTECS
light 2: not shown
notes: 6 is full length; CEACAM arm light chain hybrid (VK + lambda CL), CD47 arm (K2) fully kappa
B11: K2AC42 (bispecific antibody, human IgG1, kappa, lambda)
heavy: not shown
light 1: B10 light 1 with E28R, A31R, Y51F, T53A, N94D, E96N, N97L
light 2: not shown
notes: 6 is full length; CEACAM arm light chain hybrid, CD47 arm fully kappa
B12: K2AC43 (bispecific antibody, human IgG1, kappa, lambda)
heavy: not shown
light 1: B10 light 1 with E28N, A30P, A31R, L33I, N50D, Y51I, T53N, N97L
light 2: not shown
notes: as for B11
B13: AC46 (antibody, human IgG1, lambda, V domains shown)
VH: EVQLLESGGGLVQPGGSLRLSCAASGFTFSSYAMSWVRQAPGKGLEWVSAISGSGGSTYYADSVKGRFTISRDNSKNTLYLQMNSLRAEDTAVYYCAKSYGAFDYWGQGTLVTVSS
VL: QSVLTQPPSASGTPGQRVTISCSGSSSNIVGVGVNWYQQLPGTAPKLLIYSYNKRPSGVPDRFSGSKSGTSASLAISGLQSEDEADYYCAAYDFSLLLPAPVFGGGTKLTVLG
notes: Bivalent IgG1 mAb; 6 carries the IgG1 Fc
B14: AC47 (antibody, human IgG1, lambda, V domains shown)
VH: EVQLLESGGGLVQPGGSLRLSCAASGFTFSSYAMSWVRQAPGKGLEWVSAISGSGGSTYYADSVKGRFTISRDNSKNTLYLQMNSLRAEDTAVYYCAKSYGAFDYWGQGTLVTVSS
VL: B13 VL with V30N, S51G, Y52F, K54S, F94M, L96T, L97Y, L98V
notes: as for B13
B15: AC48 (antibody, human IgG1, lambda, V domains shown)
VH: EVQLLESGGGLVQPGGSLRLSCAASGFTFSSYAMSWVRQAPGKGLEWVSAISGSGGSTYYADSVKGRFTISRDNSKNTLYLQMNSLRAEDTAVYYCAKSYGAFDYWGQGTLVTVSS
VL: B13 VL with V30N, S51E, Y52F, F94A, S95A, L96R, L97Y, L98V
notes: as for B13
B16: AC58 (antibody, human IgG1, lambda, V domains shown)
VH: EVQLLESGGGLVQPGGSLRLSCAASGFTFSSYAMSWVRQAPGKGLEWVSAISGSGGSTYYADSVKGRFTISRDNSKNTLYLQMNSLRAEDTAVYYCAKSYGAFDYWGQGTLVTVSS
VL: QSVLTQPPSVSGAPGQRVTISCTGSSSNIGVAHDVHWYQQLPGTAPKLLIYDYSERPSGVPDRFSGSKSGTSASLAITGLQAEDEADYYCQSWDNGPNGLVWVFGGGTKLTVLG
notes: Bivalent IgG1 mAb derived from AC21 by lead optimization; 6 carries the IgG1 Fc)
B17: AC59 (antibody, human IgG1, lambda, V domains shown)
VH: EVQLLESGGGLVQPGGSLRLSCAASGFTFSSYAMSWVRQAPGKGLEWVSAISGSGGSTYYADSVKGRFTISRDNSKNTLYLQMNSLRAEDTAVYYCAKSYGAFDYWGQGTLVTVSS
VL: B16 VL with G96S, P97E, V101I, W102Y
notes: as for B16
B18: AC54 (antibody, human IgG1, lambda, V domains shown)
VH: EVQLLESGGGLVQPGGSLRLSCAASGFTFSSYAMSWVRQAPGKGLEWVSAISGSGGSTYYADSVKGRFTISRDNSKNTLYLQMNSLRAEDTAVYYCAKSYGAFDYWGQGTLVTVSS
VL: QSVLTQPPSVSGAPGQRVTISCTGSSSNIHDVGYVHWYQQLPGTAPKLLIYGASGRPSGVPDRFSGSKSGTSASLAITGLQAEDEADYYCQSYDTRQVVPTPVFGGGTKLTVLG
notes: Bivalent IgG1 mAb; 6 carries the IgG1 Fc; also called CEACAM5 mAb AC54
B19: AC56 (antibody, human IgG1, lambda, V domains shown)
VH: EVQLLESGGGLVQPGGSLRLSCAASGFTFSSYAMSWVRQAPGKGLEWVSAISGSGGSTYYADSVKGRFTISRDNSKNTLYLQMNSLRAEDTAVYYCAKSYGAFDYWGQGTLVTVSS
VL: B18 VL with H30I, D31N, V32N, G33S, G52A, A53P, G55N, R96T, Q97G, V99M
notes: as for B13
B20: AC55 (antibody, human IgG1, lambda, V domains shown)
VH: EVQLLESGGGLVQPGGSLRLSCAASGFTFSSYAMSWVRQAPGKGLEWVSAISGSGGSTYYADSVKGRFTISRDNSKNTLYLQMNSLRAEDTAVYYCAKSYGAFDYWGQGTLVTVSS
VL: B18 VL with R96S, Q97A, V99F
notes: as for B13
B21: AC52 (antibody, human IgG1, lambda, V domains shown)
VH: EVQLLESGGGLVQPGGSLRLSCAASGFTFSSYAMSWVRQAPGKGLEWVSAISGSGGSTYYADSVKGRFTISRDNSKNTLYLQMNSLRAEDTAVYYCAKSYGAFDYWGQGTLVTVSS
VL: B18 VL with R96K, Q97R, V98E, V99F
notes: as for B13
B22: AC53 (antibody, human IgG1, lambda, V domains shown)
VH: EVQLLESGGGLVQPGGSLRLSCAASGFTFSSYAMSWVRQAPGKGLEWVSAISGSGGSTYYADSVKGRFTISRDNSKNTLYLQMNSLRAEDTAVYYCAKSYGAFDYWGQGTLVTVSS
VL: B18 VL with T95G, Q97A, V99F
notes: as for B13
B23: AC57 (antibody, human IgG1, lambda, V domains shown)
VH: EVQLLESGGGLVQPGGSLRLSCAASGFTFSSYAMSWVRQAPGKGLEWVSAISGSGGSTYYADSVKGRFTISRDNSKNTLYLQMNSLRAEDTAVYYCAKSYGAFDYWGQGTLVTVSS
VL: B18 VL with H30I, D31N, V32N, G33S, G52A, A53P, G55N, Q97F
notes: as for B13

target: T1, human CEACAM5 expressed on MKN-45 wt cells (human, UniProt P06731 35-702); experiment: cell-based or functional assay
T1 sequence: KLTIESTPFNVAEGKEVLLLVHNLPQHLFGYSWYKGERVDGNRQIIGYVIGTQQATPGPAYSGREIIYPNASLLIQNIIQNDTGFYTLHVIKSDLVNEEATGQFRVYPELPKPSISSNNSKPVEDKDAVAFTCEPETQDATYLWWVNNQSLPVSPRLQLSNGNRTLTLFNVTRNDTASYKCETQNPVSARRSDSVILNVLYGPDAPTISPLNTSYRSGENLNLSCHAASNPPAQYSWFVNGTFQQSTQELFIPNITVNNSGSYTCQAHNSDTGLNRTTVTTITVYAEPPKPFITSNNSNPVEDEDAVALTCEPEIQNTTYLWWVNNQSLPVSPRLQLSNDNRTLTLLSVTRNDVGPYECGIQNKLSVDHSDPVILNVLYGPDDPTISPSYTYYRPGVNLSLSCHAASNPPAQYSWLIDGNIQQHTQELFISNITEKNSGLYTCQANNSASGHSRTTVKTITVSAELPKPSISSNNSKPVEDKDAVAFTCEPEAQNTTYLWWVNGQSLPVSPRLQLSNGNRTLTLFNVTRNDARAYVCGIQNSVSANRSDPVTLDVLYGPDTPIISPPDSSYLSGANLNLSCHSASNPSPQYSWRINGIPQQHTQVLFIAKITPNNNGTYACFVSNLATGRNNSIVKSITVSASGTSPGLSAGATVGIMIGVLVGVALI

Binder | EC50 (µg/mL) of phagocytosis [µg/mL]
B1 | 0.3
B2 | 5
B3 | 0.9
B4 | 1.6
B5 | 1
B6 | 0.8

target: T1, human CEACAM5 expressed on MKN-45 wt …; experiment: cell-based or functional assay; remark: another data set of the same source

Binder | EC50 (µg/mL) of phagocytosis [µg/mL]
B7 | 0.3

target: T1, human CEACAM5 expressed on MKN-45 wt …; experiment: flow cytometry on MKN-45 wt cells (express CEACAM5 and CD47)

Binder | EC50 [nM] | Emax (MFI)
B8 | 146 | 1.52e+06
B9 | 121 | 2.08e+06
B1 | 19 | 2.75e+06
B2 | 47 | 1.59e+06
B3 | 221 | 3.9e+06
B4 | 91 | 2.26e+06
B5 | 219 | 3.3e+06
B6 | 38 | 2.63e+06
B10 | 145 | 1.41e+06
B11 | 123 | 1.52e+06
B12 | 135 | 1.77e+06

target: T2, human CD47 expressed at the surface of MKN45 cells (human, UniProt Q08722 19-323); experiment: inhibition of SIRPα mouseFc binding to CD47 on MKN45 cells; imaging (CX5)
T2 construct: whole, on cells; also called IAP
T2 sequence (Q08722 19-323): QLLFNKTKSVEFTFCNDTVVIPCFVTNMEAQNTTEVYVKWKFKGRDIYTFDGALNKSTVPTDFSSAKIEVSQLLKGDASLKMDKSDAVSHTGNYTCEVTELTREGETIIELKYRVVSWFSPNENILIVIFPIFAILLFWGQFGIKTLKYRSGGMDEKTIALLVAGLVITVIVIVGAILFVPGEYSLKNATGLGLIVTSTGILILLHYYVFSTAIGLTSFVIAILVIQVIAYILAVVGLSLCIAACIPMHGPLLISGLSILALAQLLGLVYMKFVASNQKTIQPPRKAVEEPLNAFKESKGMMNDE

Binder | IC50 [nM]
B8 | 6.8
B9 | 3.2
B1 | 0.16
B2 | 2.8
B3 | 1.6
B4 | 1.1
B5 | 1.1
B6 | 0.3
B10 | 3.7
B11 | 2.9
B12 | 3.9

target: T3, biotinylated recombinant human CEACAM5 (human, UniProt P06731 35-685, biotin on the C-terminal Avitag); experiment: ELISA; biotinylated recombinant protein on streptavidin plate; bivalent mAb titrated
T3 construct: also called CD66e; not shown: C-terminal Avitag plus hexa-histidine tag, human Fc or mouse Fc
T3 sequence: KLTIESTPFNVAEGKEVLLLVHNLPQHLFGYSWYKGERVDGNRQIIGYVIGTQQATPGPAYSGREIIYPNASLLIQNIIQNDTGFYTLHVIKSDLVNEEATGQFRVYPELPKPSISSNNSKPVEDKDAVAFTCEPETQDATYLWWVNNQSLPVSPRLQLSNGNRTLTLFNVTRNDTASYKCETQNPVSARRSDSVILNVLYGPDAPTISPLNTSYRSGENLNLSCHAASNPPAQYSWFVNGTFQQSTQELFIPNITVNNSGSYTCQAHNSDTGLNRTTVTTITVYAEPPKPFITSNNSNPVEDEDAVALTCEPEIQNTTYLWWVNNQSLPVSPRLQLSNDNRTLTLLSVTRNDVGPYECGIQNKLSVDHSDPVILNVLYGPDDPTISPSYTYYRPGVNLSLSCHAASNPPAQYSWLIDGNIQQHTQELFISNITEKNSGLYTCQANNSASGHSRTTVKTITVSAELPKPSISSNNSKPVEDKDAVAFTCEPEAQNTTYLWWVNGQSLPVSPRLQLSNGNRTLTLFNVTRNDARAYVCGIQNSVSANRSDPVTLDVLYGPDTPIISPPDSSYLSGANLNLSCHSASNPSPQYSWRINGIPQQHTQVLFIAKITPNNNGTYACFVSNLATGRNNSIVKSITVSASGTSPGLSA

Binder | EC50 [nM]
B13 | 0.07
B14 | 0.03
B15 | 0.05
B16 | 0.04
B17 | 0.05
B18 | 0.03
B19 | 0.02
B20 | 0.03
B21 | 0.03
B22 | 0.03
B23 | 0.01

target: T4, recombinant cynomolgus monkey CEACAM5 (cynomolgus monkey (macaca fascicularis)); experiment: as above
T4 construct: also called cyno CEACAM5; cynomolgus CEACAM5

Binder | EC50 [nM]
B13 | 0.04
B14 | 0.06
B15 | 0.04
B16 | 0.04
B17 | 0.05
B18 | 0.02
B19 | 0.02
B20 | 0.02
B21 | 0.02
B22 | 0.02
B23 | 0.02
